Results as given in patent publication US20190071499A1 (published 2019).

Assays:
[1] = target: T1, g1mIFN-α9 (mouse, UniProt P09235 24-190); assay: LIPS
T1 construct: also called murine IFN-α9 (Gaussia luciferase fusion); not shown: Gaussia luciferase fusion partner
T1 sequence (looked up): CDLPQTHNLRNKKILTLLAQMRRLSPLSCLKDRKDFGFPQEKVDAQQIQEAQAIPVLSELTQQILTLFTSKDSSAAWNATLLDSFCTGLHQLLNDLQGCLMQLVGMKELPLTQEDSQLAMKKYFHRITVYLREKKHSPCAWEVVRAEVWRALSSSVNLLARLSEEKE

[2] = target: T2, human IFN-α1 (human, UniProt P0DY56 24-189); assay: ELISA or LIPS (Table 7 summary; ELISA at 300 ng/ml MAB in paragraph 311)
T2 construct: commercial recombinant protein; also called IFN-alpha 1beta; IFN-α1/13
T2 sequence (P0DY56 entry or part of it limits assumed): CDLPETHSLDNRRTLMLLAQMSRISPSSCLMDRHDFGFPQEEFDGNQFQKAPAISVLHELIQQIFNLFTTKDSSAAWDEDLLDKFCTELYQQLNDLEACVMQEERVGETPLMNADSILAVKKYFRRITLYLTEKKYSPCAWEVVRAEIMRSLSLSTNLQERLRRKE
Protocol: In this experiment, examined MABs (300 ng/ml) were incubated for 2 hours with antigen-coated plates (coating overnight at 1 μg/ml in PBS, followed by wash out and blocking with 2% BSA in PBS). The plates were subsequently washed and binding of MABs was detected with anti-human HRP-conjugated secondary antibody.

[3] = target: T3, human IFN-α10 (human, UniProt P01566 24-189); assay: ELISA or LIPS (Table 7 summary)
T3 construct: recombinant protein; also called rhIFN-α10
T3 sequence (P01566 24-189 limits assumed): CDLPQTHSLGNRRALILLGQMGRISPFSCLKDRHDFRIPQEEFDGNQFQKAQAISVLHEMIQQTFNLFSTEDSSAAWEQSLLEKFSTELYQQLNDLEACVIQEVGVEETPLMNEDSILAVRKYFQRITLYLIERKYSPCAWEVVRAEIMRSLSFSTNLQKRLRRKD

[4] = target: T4, human IFN-α21 (human, UniProt P01568 24-189); assay: ELISA or LIPS (Table 7 summary)
T4 construct: commercial recombinant protein; also called rhIFN-α21; IFN-α21 (PBL)
T4 sequence (P01568 24-189 limits assumed): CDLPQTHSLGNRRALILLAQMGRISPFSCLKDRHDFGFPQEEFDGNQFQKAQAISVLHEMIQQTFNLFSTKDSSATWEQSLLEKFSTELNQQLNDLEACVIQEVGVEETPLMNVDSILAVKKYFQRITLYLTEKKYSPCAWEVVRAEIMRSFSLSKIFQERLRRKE

[5] = target: T5, human IFN-α16 (human, UniProt P05015 24-189); assay: ELISA or LIPS (Table 7 summary)
T5 construct: recombinant protein; also called rhIFN-α16
T5 sequence (P05015 24-189 limits assumed): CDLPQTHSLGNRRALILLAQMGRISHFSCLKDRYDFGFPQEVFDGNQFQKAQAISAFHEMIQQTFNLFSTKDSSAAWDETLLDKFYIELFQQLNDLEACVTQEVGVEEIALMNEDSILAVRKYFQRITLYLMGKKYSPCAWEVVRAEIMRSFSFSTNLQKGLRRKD

[6] = target: T6, human Fc fusion mouse IFN-α2 (mouse, UniProt P01573 24-190); assay: ELISA, human Fc fusion mouse IFN-α
T6 construct: bought (SinoBiological); also called murine IFN-α2; murine INFA2; not shown: human Fc
T6 sequence (looked up): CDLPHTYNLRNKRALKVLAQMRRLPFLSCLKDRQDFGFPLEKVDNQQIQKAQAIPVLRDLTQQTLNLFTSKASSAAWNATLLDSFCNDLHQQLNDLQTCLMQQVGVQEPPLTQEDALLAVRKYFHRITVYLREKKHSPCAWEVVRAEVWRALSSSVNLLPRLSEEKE

[7] = target: T7, human Fc fusion mouse IFN-α4 (mouse, UniProt P07351 25-186); assay: ELISA, human Fc fusion mouse IFN-α
T7 construct: bought (SinoBiological); also called murine IFN-α4; not shown: human Fc
T7 sequence (looked up): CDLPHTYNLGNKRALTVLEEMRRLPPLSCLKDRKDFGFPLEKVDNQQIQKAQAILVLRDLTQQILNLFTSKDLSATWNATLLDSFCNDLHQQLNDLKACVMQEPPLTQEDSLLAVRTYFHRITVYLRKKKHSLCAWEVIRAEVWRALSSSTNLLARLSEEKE

binding result [1]: no binding
binding result [2]: no binding
binding result [3]: binds
binding result [4]: binds
binding result [5]: binds
binding result [6]: no binding
binding result [7]: no binding
B1: 5D1 (antibody, human IgG1, kappa, V domains shown)
VH: EVQLVQAGAEVKAPGESLRISCKVSGYTFTSYWISWVRQIPGKGLEWMVKIDPRDSYTIYNPSFQGHVSISVDKSITTVYLQWSSLQASDTAIYYCVRHYLTQSLVDYFDHWGQGTLVAVSS
VL: DIQMTQSPSSLSASVGDSVTITCRASQSVSNYFHWYRQKPGKAPELLIYSASNLQTGVPSRFTGSGSGTECTLTITSLQPDDFATYYCQQTHGYPFTFGQGTKLDVRR
notes: human-derived IgG1, kappa; also called MAB 5D1; hMAB 5D1
